This is an account of results in paper doi:10.1101/2025.01.28.635353 (2025).

This assay deals with EGFR (UniProt P00533 25-1210). Briefly: SPR; printed as pKD […]. For orientation: SPR reads the build-up and loss of mass on a sensor chip optically.

B1: aEGFR-R1-1 (antibody, V domains shown)
VH: EVKLQQSGDETMRPGASVRMSCKAYGYTFTDYSMHWIRQRPGQGLEWIGIIIPLIDTTRYNQKFKGKATLTADTSSDTAYMELSRLTFEDSAVYYCARSYDPSGDDWFAYWGQGTLVTVSS
VL: DTVLTQSPALSVSPGERVDISCRASESVSTLLHWYQQKPGQQPTLLISLASSLESGVPARFSGSGSGTDFTLTIDPVEADDTAIYYCQESWNEPYAFGAGTKLELK
For the molecule B1, the affinity, expressed as Kd, was 0.126 nM.
